Test results reported in publication PMC7732855.

Biological target: heat shock protein 60 (Hsp60), surface-expressed on Caco-2 cells (human (endogenous in Caco-2)) (UniProt P10809)
UniProt P10809, sequence (P10809 27-573): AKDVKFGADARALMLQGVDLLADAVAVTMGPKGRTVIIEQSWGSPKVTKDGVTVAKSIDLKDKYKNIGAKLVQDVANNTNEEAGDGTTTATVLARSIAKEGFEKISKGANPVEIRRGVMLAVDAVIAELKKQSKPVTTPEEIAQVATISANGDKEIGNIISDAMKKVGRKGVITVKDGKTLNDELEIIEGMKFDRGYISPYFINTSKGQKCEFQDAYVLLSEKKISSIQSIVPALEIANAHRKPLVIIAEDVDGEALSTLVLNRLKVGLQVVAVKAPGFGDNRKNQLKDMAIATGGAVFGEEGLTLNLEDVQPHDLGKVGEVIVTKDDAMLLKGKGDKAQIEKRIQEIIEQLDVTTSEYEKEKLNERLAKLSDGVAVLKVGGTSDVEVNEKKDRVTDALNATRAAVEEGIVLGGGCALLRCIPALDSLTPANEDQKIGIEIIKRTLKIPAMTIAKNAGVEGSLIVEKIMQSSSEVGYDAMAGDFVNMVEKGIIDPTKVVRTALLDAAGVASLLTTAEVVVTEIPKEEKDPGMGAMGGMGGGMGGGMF

Listeria adhesion protein (LAP) from Listeria monocytogenes F4244, expressed on the surface of Lactobacillus casei (strain LbcLAP^Lm) (natural protein)
adhesion of the BLP strain (MOE 10, 1 h) to Hsp60^+ Caco-2 cells (Hsp60 overexpressed), relative to LbcWT: 9 fold | adhesion of the BLP strain (MOE 10, 1 h) to Hsp60^Vec Caco-2 cells (basal Hsp60), relative to LbcWT: 4 fold

B1: Listeria adhesion protein (LAP) from Listeria innocua F4248, expressed on the surface of Lactobacillus casei (strain LbcLAP^Lin) (natural protein)
chain: MAIKENAAQEVLEVQKVIDRLADNGQKALKAFESYNQEQVDNIVHAMALAGLDQHMPLAKLAVEETGRGLYEDKCIKNIFATEYIWNNIKNNKTVGVINEDTQTGVIEIAEPVGVVAGVTPVTNPTSTTLFKAIIAIKTRNPIIFAFHPSAQRCSSEAAKVVYDAAVAAGAPEHCIQWVEKPSLEATKQLMNHDKVALVLATGGAGMVKSAYSTGKPALGVGPGNVPAYIDKTAKIKRSVNDIILSKSFDQGMICASEQAVIVDKEVAKEVKAEMEANKCYFVKGAEFKKLESYVINPEKGTLNPDVVGKSPAWIANQAGFKVPEDTKILVAEIKGVGDKYPLSHEKLSPVLAFIEAANQAEAFDRCEEMLVYGGLGHSAVIHSTDKEVQKAFGIRMKACRIIVNAPSAQGGIGDIYNGFIPSLTLGCGSYGKNSVSQNVSATNLLNVKRIADRRNNMQWFKLPPKIFFEKYSTQYLQKMEGVERVFIVTDPGMVQFKYVDVVIEHLKKRGNDVAYQVFADVEPDPSDVTVYKGAELMKDFKPDTIIALGGGSAMDAAKGMWLFYEHPEASFFGLKQKFLDIRKRTFKYPKLGGKAKFVAIPTTSGTGSEVTPFAVITDKENNIKYPLADYELTPDVAIVDAQYVTTVPAHITADTGMDVLTHAIESYVSVMASDYTRGLSIRAIELVFENLRESVLTGDPDAREKMHNASALAGMAFANAFLGINHSLAHKIGPEFHIPHGRANAILMPHVIRYNALKPKKHALFPRYESFRADEDYARISRIIGFPAATTEEGVKSLVDEIIKLGKDVGIDMSLKGQNVAKKDLDAVVDTLADRAFMDQCTTANPKQPLVSELKEIYLEAYKGV
adhesion of the BLP strain (MOE 10, 1 h) to Hsp60^+ Caco-2 cells (Hsp60 overexpressed), relative to LbcWT: 9 fold | adhesion of the BLP strain (MOE 10, 1 h) to Hsp60^Vec Caco-2 cells (basal Hsp60), relative to LbcWT: 4 fold
